Consider 23 sequences from the DeepSol protein solubility set.

This data set is described as follows: soluble on expression in E. coli; label from the status in PepcDB or PDB records.
Turning to “MSDEQIDKLVSRLDGALNRLGNVKKDHPLESSSNSKPTHQPKSPAPYRQKIEKLSAEVVDSNPYSRLMALQRMGIVNEYERIREKTVAVVGVGGVGSVVAEMLTRCGIGKLILFDYDKVEIANMNRLFYQPNQAGLSKVEAARDTLIHVNPDVQIEVHNFNITTMDNFDTFVNRIRKGSLTDGKIDLVLSCVDNFEARMAVNMACNEENQIWMESGVSENAVSGHIQYIEPGKTACFACVPPLVVASGIDERTLKRDGVCAASLPTTMAVVAGFLVMNTLKYLLNFGEVSQYVGYNALSDFFPRDSIKPNPYCDDSHCLQRQKEYEEKVANQPVDLEVEVPEEETVVHEDNEWGIELVNESEPSAEQSSSLNAGTGLKFAYEPIKRDAQTELSPAQAATHDFMKSIKDKLVEEAQNKGK”, the “soluble on expression in E. coli” value is “not soluble”.

Regarding “MSDKDEGTERLVALLERLGVNRWAARSEADDAVVNARNLVPMFLLLREVWKHVVREGDTSWLQKDARLLAQEPEAGWSDMRRALASLQAKGATAQELTDVVKGKQVSLLYDVFETLCDDDPDLEAEFSGIGWGVFETDAVGRPGRRMDRLFAPVVTLDPTGRCMGPRE”, the “soluble on expression in E. coli” value is “not soluble”.

As to “MSDKLFSIVTISFNQAQFLREAVESVLAQKGGDIEYIVVDPGSTDGSREILAEYRSAIDHLILEADHGPGDGLNKGFARANGRYGYFLNSDDFLLPGAIDIMRTLWQRHKNTDVLLCGAWMVDENRRPQRELRPSPVTLEKLLDGEAKIVQQGMSFRMDLFRKVGGFNVGNRTCWDYELLCDFLAAGAAVTQSEARLAAFRIHSASISGGIGGELATKRYLADLDSVYERLTGQKKKPEQRRRAVRLSKRLGSPSHVLLRMRELLAPWTLELRWQADHERKSRRLEHHHHHH”, the “soluble on expression in E. coli” value is listed as “not soluble”.

For the sequence “MSDKLPYKVADIGLAAWGRKALDIAENEMPGLMRMRERYSASKPLKGARIAGCLHMTVETAVLIETLVTLGAEVQWSSCNIFSTQNHAAAAIAKAGIPVYAWKGETDEEYLWCIEQTLYFKDGPLNMILDDGGDLTNLIHTKYPQLLPGIRGISEETTTGVHNLYKMMANGILKVPAINVNDSVTKSKFDNLYGCRESLIDGIKRATDVMIAGKVAVVAGYGDVGKGCAQALRGFGARVIITEIDPINALQAAMEGYEVTTMDEACQEGNIFVTTTGCIDIILGRHFEQMKDDAIVCNIGHFDVEIDVKWLNENAVEKVNIKPQVDRYRLKNGRRIILLAEGRLVNLGCAMGHPSFVMSNSFTNQVMAQIELWTHPDKYPVGVHFLPKKLDEAVAEAHLGKLNVKLTKLTEKQAQYLGMSCDGPFKPDHYRY”, the “soluble on expression in E. coli” value is on record as “soluble”.

Turning to “MSDNDIIDDDVLNIEDMTGDDADLSAIEGDLNEIEEEQKKLKAIQNEMVGHMNLNTSSQSNSSQSLLTPEEKAEADAKSVYVGNVDYGATAEEIEQHFHGCGSVSRVTIQCDRFSGHPKGFAYVEFTEKEGMQNALAMTDSLLRGRQIKVDPKRTNKPGMSTTNRPPFRGRGGRGRGNVIVKYVYAGGFRPRGRGARRRPGFAPY”, the “soluble on expression in E. coli” value is listed as “soluble”.

For “MSDRKPVRGRHQARKRAVALLFEAEVRGISAAEVVDTRAALAEAKPDIARLHPYTAAVARGVSEHAAHIDDLITAHLRGWTLDRLPAVDRAILRVSVWELLHAADVPEPVVVDEAVQLAKELSTDDSPGFVNGVLGQVMLVTPQLRAAAQAVRGGA”, the “soluble on expression in E. coli” value is “soluble”.

With “MSDRYRFTILGCGSSPGVPRPNGDWGACNPNNPKNKRYRSSLLVERIHKSGKKTTIVIDTGPDFRSQMIDACVNHLDAALYTHSHADHIHGIDDLRSYALAQKSLIDIYADSFTLRHLKNAFGYCFQTPKGSSYLPILKAHLINEDSQFIIQGQGGAIHVNTHLQLHGSIHSLGFRIGNVAYCTDVSQFPKKTLPKLMNLNVLIIEALQFKSHPSHLSVDQALQWIKYLQPKQAILTHMDRSLDYNEVINYLPPHVKPAYQGLIFEADA”, the “soluble on expression in E. coli” value is “not soluble”.

“MSDSDAMTDPNAVSYSNAIVVLCTAPDEASAQNLAAQVLGEKLAACVTLLPGATSLYYWEGKLEQEYEVQLLFKSNTDHQQALLTYIKQHHPYQTPELLVLPVRDGDKDYLSWLNASLL”: the “soluble on expression in E. coli” value is reported as “not soluble”.

In the case of “MSEANIIHSRYGLRCEKLDKPLNLGWGLDNSAVLHCPGELPTGWLCDALDQIFIAAPQLSAVALPWAEWREEPQALTLFGQVKSDIIHRTAFWQLPLWLSSPANRASGEMVFDAEREIYFPQRPPRPQGEVYRRYDPRIRRMLSFRIADPVSDAERFTRWMNDPRVEYFWEQSGSLEVQTAYLERQLTGKHAFPLIGCFDDRPFSYFEIYWAAEDRIGRHYSWQPFDRGLHLLVGEQQWRGAHYVQSWLRGLTHYLLLDEPRTQRTVLEPRTDNQRLFRHLEPAGYRTIKEFDFPHKRSRMVMADRHHFFTEVGL”, the “soluble on expression in E. coli” value is “not soluble”.

For the sequence “MSEATTTLDGWYCLHDLRSIDWAAWKTLSSDERGQAVSEFLNVVEKWNEVATAKKGSHAMYTVVGQKADIMLMILRPTMEELNEIETELNKTTLAEYMVPAYSYVSVVELSNYLPADEDPYQNPQILARLYPELPKANHICFYPMDKRRQGDDNWYMLPMEERKKMMYSHSKIGRQYAGKVRQVISGSVGFDDFEWGVTLFADDVLQFKKLIYEMRFDEVSARYGEFGTFFVGNILPDEKVEKFLHI”, the “soluble on expression in E. coli” value was “not soluble”.

For the sequence “MSEDGEISLSPNSAALMDGLDDFIIDKNCSGIIPNEDLERETPSADDDAEVKTSSNWAKNMRKRMFGEQCDEPEESEKKRRRTNCCFNCRGGDHSIAQCPEPKNFAEIRKNKLEFMNDKQQQHQPTGRISQVTEQQQEAKFKPGRLSQNLRKALSLGPDDIPEWVYRMRRLGFYRGYPPGYLRKSLKREFATLKIYSEDHNQEEVDNDDDEEARPAPTIQSEKVHFYMGFNKTYGALRDRERGRFEVPPFDIFCEMLQTEVARDHEGTEKIRIREERHQRSELRKIREQQKEEEEQQQRDSAEKVEKEVTVDQTISEVAAAAAAVEEKPGTPEPVGRMGESISEFIGTPIFSRRDVTGTWIEDTVPSLEAFSVGIVPFEAKEEEKPRGIFKKIMSTLKGITGRNSGDDEMKKKE”, the “soluble on expression in E. coli” value was “not soluble”.

On to “MSEEDKAKKLENLLKLLQLNNDDTSKFTQEQKKAMKDHKFWRTQPVKDFDEKVVEEGPIDKPKTPEDISDKPLPLLSSFEWCSIDVDNKKQLEDVFVLLNENYVEDRDAGFRFNYTKEFFNWALKSPGWKKDWHIGVRVKETQKLVAFISAIPVTLGVRGKQVPSVEINFLCVHKQLRSKRLTPVLIKEITRRVNKCDIWHALYTAGIVLPAPVSTCRYTHRPLNWKKLYEVDFTGLPDGHTEEDMIAENALPAKTKTAGLRKLKKEDIDQVFELFKRYQSRFELIQIFTKEEFEHNFIGEESLPLDKQVIFSYVVEQPDGKITDFFSFYSLPFTILNNTKYKDLGIGYLYYYATDADFQFKDRFDPKATKALKTRLCELIYDACILAKNANMDVFNALTSQDNTLFLDDLKFGPGDGFLNFYLFNYRAKPITGGLNPDNSNDIKRRSNVGVVML”, for which the “soluble on expression in E. coli” value is given as “soluble”.

Take “MSEEHIAVTRFREYLRVNTEQPNPNYAACRDFLFKYADELGIARRSIETAPGVFLVIMTIPGSQPELPSIMLYSHTDVVPTFREHWTHDPYSAFKDEDGNIFARGAQDMKCVGVQQMEALRNLFAQGIRQWKRTIHLVWGPDEEIFGINGMKGFAKTDEFKKLNLGFSLDEGMPSDDDVYKVFYAERVAWWVKVTFPGNPGHGSQFMENTAMEKLERFLASARKFRNEQKVVLESNPNLTLGDVTTLNVNIVNGGVQFNVIPEKFEAYVDMRLTPHEDFNKIREMLDQWAKNAGEGVTYEFSQYSDQKPISAHTRDNSFWAAFEDSLNQENCKFEKGIMVASTDSRFVRYEGVNSINFSPMINTPFLPHDHNEYLNEKVFLRGLEIYQTIINNLGNV”: the “soluble on expression in E. coli” value was “not soluble”.

With “MSEEIVLKAGGKIYQGWTKIGITRSLEAMSGAFDLEMTYKFLGNDAQYKAFIEPIKQGQACTVDIGGERVITGYVDDWVPSYDESTITISVSGRDKTADLVDCSIDYPSGQFNNQTLTQIADIVCKPFGIKVIVNTDVGEPFQRIQIEQGETPHELLARLAKQRGVLLTSDTFGNLVITRASKTKAGVSLILGDNVKAARGRFSWRQRFSKFTIKAAGAAHGQWDSAGLPTVGGIKADVTDSEIGRYRPLIIVNEEVTTAEGAAKRGQWERQRSIGKSNMAEYTVTGWRIPQTGKLWNINTLVPVIDEIMGLDEEMLIASILFSEDDAGRLAVISVVRPDAMDIPAQIVKDTKLGGSTW”, the “soluble on expression in E. coli” value is recorded as “soluble”.

Regarding “MSEGLSFVIQRHQARRLHYDFRLEIDGVLVSWAVPKGPSRDPSVKRLAVHVEDHPLEYGGFSGDIPKGQYGAGHVDIWDSGVWIPRGDPRQGLRRGKLHFALRGRRLAGDWVLVRMSGEQDQWLLRKEDDEALEHHHHHH”, the “soluble on expression in E. coli” value is recorded as “not soluble”.

Regarding “MSEHETAGEGRFNSIEIRVLGSLIEKQATSPESYPLTLNALVLACNQKTSREPVMNLTQGQVGQALRALEGQGMTRLQMGSRADRWEHRVDKALELVPAQLVLMGLMFLRGPQTLNELLTRSNRLHDFDDTEQIQHQLERLISRDLALHLPRQAGQREDRYTHALGDPAEIEAILAARQQEGGARTSGGSVSEDRIEALEARIAALEARLAELEG”, the “soluble on expression in E. coli” value is given as “not soluble”.

Take “MSEIPTEVPVKTRKRTYDLKFKLHAINYALEHKNISKAAKDLNVNRQNIQQWIAQKAEIEKQLEDNGSTATKRLSGGGRPLKYDDVDKELIKWVHDQRKEKQRVTRRIIGETAKKISQNSDFKASRGWLDKFMCRHNLSTRRARTEPGDLMQTLVDILLRQTSSDDGEEDPMISFIKSCIPSGEDPLEGEDQAASSSVQVPKVLAEENGHESDSDQSIVDVND”: the “soluble on expression in E. coli” value is listed as “not soluble”.

“MSEITIGVLSLQGDFEPHINHFIKLQIPSLNIIQVRNVHDLGLCDGLVIPGGESTTVRRCCAYENDTLYNALVHFIHVLKKPIWGTCAGCILLSKNVENIKLYSNFGNKFSFGGLDITICRNFYGSQNDSFICSLNIISDSSAFKKDLTAACIRAPYIREILSDEVKVLATFSHESYGPNIIAAVEQNNCLGTVFHPELLPHTAFQQYFYEKVKNYKYSLEHHHHHH”: the “soluble on expression in E. coli” value is “soluble”.

Take “MSEKYIVTWDMLQIHARKLASRLMPSEQWKGIIAVSRGGLVPGALLARELGIRHVDTVAISSYDHDNQRELKVLKRAEGDGEGFIVIDDLVDTGGTAVAIREMYPKAHFVTIFAKPAGRPLVDDYVVDIPQDTWIEQPWDMGVVFVPPISGR”: the “soluble on expression in E. coli” value is “soluble”.

For the sequence “MSELFKKLMDQIEMPLEIKNSSVFSSADIIEVKVHSLSRLWEFHFSFPELLPIEVYRELQTRLVNSFEKADIKATFDIRAETIDFSDDLLQDYYQQAFCEPLCNSASFKSSFSQLKVHYNGSQMIISAPQFVNNNHFRQNHLPRLEQQFSLFGF”, the “soluble on expression in E. coli” value was “not soluble”.

Take “MSELVVIREMQEKDILALDTQFVQQGWPSRQEILMNYLEEQLVKQRTVFVAEKKATLLGYVTLLPLAKEGPFKNLYPEIADFNVFLPFQKQGVGRLLLNRAENVAKSYADTVSLGVGLHPGYGAAQRLYIKQGYVPDGSGVWFQNKQLKPNERCVNDDELVLYLSKKL”: the “soluble on expression in E. coli” value is “not soluble”.

On to “MSEMGKYKPPAERKYGKGVQSCQRCGSKDSVIQKYGIYLCRQCFREVAYELGFRKYW”, for which the “soluble on expression in E. coli” value is recorded as “soluble”.

In the case of “MSEMSAIYRVKQYILNLIKDGELTNGSKLPSNLSIARALNVKTDDVYDGIDELITEQVVTDNFEEGTSVKVKPPFYYPLNKIISIGTMIKEAGYEAGTEYLNLDEQPATILDAEHLGIETKEPITIIERLRTANHKPVVYCLDKIAKTYLTCTDYQQSSGSMLEAIKASTNHQIMHAEMDLEAISYEPHISEVLNASPHEGLMLLKVVHYDEKHQPILYSLNYIKSSLVKFTITKSE”, the “soluble on expression in E. coli” value is on record as “not soluble”.
